Results as given in FireProtDB (doi:10.1093/protein/gzt061).

B1: Limonene-1,2-epoxide hydrolase, Q9ZAG3 (parent)
chain: MTSKIEQPRWASKDSAAGAASTPDEKIVLEFMDALTSNDAAKLIEYFAEDTMYQNMPLPPAYGRDAVEQTLAGLFTVMSIDAVETFHIGSSNGLVYTERVDVLRALPTGKSYNLSILGVFQLTEGKITGWRDYFDLREFEEAVDLPLRG

Variants of: B1
Conditions: Rhodococcus erythropolis; pH 7.1; Thermal; Fluorescence; Potassium phosphate 50mM; transition: 2; reversible: no; structure 1NWW; whole UniProt chain shown

Variant | Tm [°C] | change of melting temperature, mutant - wild type (higher = more stable) [°C]
E124D | 50.1 | 1.3
E124R | 46 | -2.8
E124K | 47.5 | -1.3
Q69R | 49.1 | 0.3
E68Q | 49.3 | 0.5
V102C | 62 | 13.2
D65E | 49.3 | 0.5
I5C E84C | 64 | 15.2
A20P | 46.7 | -2.1
Y96F | 51.6 | 2.8
K110R | 47.3 | -1.5
T85L | 51.3 | 2.5
T85I | 54.6 | 5.8
T85P | 42.8 | -6
T85V | 55.6 | 6.8
M52C G129C | 40 | -8.8
E45K | 50.8 | 2
E45R | 47.8 | -1
K13P | 44.8 | -4
I127F | 46.3 | -2.5

Variant | Tm [°C] | change of melting temperature, mutant - wild type (higher = more stable) [°C]
A66P | 49.6 | 0.8
K42R | 47.5 | -1.3
I27M | 47 | -1.8
D24R | 45 | -3.8
A16R | 48.3 | -0.5
Y112C A142C | 56 | 7.2
K4C A82C | 59 | 10.2
A105C V143C | 46.5 | -2.3
L106R | 46.5 | -2.3
L94F | 48.8 | 0
L122F | 41.3 | -7.5
A48C K126C | 53 | 4.2
D33R | 46.5 | -2.3
D33K | 47.3 | -1.5
T76K | 50.3 | 1.5
N92K | 56.1 | 7.3
N92R | 50.6 | 1.8
I44C E68C | 56 | 7.2
A19K | 51.3 | 2.5
Q121V | 38.8 | -10

Variant | Tm [°C] | change of melting temperature, mutant - wild type (higher = more stable) [°C]
A41R | 48.8 | 0
A41S | 49.1 | 0.3
S15K | 48.5 | -0.3
S15P | 49 | 0.2
A142R | 46 | -2.8
G89C S91C | 66 | 17.2
S12R | 49 | 0.2
S111K | 46.5 | -2.3
S111R | 48.8 | 0
D50P | 42.8 | -6
A72R | 47 | -1.8
M32C V83C | 44 | -4.8
Y62W | 48.8 | 0
A17C N92C | 64 | 15.2
D24C L122C | 36 | -12.8
P57C D135C | 35 | -13.8
G18N | 49.1 | 0.3
A17C L94C | 56 | 7.2
